Reference: ChEMBL document CHEMBL2074411

Substrate: NCCc1ccc(O)c(O)c1
Assay: cells, lysate or membranes named

B1: Solute carrier family 22 member 2 (Rattus norvegicus) (protein)
chain: MSTVDDILEHIGEFHLFQKQTFFLLALLSGAFTPIYVGIVFLGFTPDHHCWSPGAAKLSQRCGWSQAEELNYTVPGLGPSDEASFLSQCMRYEVDWNQSTLDCVDPLSSLAADRNQLPLGPCEHGWVYNTPGSSIVTEFNLVCAHSWMLDLFQSVVNVGFFIGAMMIGYLADRFGRKFCLLVTILINAISGALMAISPNYAWMLVFRFLQGLVSKAGWLIGYILITEFVGLGYRRMVGICYQIAFTVGLLILAGVAYVIPNWRWLQFAVTLPNFCFLLYFWCIPESPRWLISQNKIVKAMKIIKHIAKKNGKSVPVSLQNLTPDEDAGKKLNPSFLDLVRTPQIRKHTLILMYNWFTSSVLYQGLIMHMGLAGDNIYLDFFYSALVEFPAAFIIILTIDRVGRRYPWAVSNMVAGAACLASVFIPDDLQWLKITIACLGRMGITMAYEMVCLVNAELYPTYIRNLGVLVCSSMCDIGGIITPFLVYRLTDIWMEFPLVVFAVVGLVAGALVLLLPETKGKALPETIEDAENMQRPRKKKEKRIYLQVKQADRPLS
Protein B1 has a Km of 2300 µM.
